Experimental findings from US7169567 are described below.

Test in all cases: cell-based or functional assay
Experiment [1] deals with intact rat secretin receptor (rat) (UniProt P23811).
In experiment [2] the target is human PTH-1 receptor (human) (UniProt Q03431).
Experiment [3] addresses truncated rat PTH-1 receptor rΔNt (rat) (UniProt P25961).
Experiment [4] concerns the target intact rat PTH-1 receptor with HA epitope tag (rWT-HA) (rat) (UniProt P25961).

Where “and” joins values, the source holds several entries; their conditions need not be identical. Equal entries are not always repeated.

Chain of human PTH-1 receptor (human) (Q03431 27-593): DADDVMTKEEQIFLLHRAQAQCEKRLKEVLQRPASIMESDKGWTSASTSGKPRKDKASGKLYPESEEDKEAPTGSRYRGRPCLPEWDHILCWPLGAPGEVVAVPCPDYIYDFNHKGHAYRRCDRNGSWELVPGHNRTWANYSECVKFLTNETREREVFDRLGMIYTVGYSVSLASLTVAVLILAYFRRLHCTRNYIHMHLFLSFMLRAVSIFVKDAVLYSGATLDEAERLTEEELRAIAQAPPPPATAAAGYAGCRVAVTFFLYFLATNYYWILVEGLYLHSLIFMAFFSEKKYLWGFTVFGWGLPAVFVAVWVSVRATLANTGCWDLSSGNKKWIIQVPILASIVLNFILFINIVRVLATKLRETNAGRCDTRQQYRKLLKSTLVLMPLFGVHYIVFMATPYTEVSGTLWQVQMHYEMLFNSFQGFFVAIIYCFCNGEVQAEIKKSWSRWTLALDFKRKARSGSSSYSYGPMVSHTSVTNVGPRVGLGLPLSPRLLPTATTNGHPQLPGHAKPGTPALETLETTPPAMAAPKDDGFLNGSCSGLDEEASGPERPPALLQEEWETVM
Chain of intact rat PTH-1 receptor with HA epitope tag (rWT-HA) (rat) (P25961 other isoform, or with tags, fused parts or gaps): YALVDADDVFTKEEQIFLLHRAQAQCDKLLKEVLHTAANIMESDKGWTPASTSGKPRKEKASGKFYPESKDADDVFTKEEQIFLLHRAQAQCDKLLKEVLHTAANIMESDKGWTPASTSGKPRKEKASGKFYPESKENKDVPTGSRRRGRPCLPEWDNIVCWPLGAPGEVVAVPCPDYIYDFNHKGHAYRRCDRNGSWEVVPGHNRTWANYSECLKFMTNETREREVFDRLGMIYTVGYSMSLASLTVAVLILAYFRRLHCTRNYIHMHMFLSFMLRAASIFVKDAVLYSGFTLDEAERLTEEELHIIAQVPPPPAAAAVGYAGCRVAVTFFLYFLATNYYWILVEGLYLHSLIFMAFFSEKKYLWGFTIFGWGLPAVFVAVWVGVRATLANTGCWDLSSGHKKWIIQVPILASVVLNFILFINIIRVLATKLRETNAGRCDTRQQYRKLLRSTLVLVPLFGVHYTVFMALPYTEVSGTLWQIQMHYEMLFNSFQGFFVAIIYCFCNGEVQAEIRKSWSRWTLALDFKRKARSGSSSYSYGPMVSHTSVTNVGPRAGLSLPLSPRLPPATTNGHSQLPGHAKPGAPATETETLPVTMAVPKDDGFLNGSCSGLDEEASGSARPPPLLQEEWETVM
Chain of intact rat secretin receptor (rat) (P23811 26-449): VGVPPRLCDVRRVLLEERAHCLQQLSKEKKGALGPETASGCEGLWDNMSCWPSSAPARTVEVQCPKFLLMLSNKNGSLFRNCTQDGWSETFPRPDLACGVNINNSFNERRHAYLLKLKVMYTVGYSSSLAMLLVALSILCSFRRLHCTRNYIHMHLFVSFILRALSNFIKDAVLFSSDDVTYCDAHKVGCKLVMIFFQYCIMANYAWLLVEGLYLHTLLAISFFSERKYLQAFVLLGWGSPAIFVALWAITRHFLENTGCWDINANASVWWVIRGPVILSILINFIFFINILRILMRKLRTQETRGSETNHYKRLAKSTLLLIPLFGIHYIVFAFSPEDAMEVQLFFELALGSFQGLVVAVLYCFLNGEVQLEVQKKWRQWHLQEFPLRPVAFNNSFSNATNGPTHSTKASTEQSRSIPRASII
Chain of truncated rat PTH-1 receptor rΔNt (rat) (P25961 other isoform, or with tags, fused parts or gaps mutant): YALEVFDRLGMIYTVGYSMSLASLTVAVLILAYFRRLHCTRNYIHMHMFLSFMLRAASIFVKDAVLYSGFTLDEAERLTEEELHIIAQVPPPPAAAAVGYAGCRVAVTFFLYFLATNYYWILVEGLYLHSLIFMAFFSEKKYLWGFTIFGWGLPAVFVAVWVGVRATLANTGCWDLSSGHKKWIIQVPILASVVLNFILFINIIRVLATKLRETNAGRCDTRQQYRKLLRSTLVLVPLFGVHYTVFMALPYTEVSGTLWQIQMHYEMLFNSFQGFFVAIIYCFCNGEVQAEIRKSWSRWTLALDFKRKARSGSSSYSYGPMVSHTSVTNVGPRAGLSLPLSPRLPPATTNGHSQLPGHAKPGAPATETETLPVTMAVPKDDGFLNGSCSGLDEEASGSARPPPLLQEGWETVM

In experiment [1], secretin(1-27) (peptide) yielded an increase in cAMP levels of 50 fold.
With “[Nle8,21,Tyr34]rPTH-(1-34)NH2 (from UniProt P04089 32-65) (peptide)”, in experiment [2], the EC50 of the cAMP response amounted to 2 nM, the increase in intracellular cAMP levels relative to the basal cAMP level was found to be 50 fold and the maximum cAMP response was determined as 254 pmole/well. The same substance displayed a decrease in cAMP potency compared with rWT-HA in experiment [3] of 100 fold.
In experiment [4], “[Leu11,D-Trp12]hPTHrP(7-34)NH2 (from UniProt P12272 43-70) (peptide)” yielded a reduction of the cAMP efficacy of the agonist PTH(1-14) of less than 70% and a reduction of the cAMP efficacy of the agonist PTH(1-34) of less than 70%.
With “rat PTH(1-15) (from UniProt P04089 32-46) (peptide)”, in experiment [2], the cAMP formation over the basal level is 20 fold; the dose required for cAMP activation relative to PTH(1-34) (orders of magnitude) is 5 and 6.
